From patent US20040005669A1 (CREATIVE PEPTIDES SWEDEN, published 2004)

What was measured:
[1] = target: T1, human serum albumin (HSA), immobilised on Sepharose (human, UniProt P02768 25-609); assay: affinity chromatography on HSA-Sepharose
T1 construct: also called HSA-Sepharose; human-serum-albumin (HSA)-Sepharose
Description: E. coli cells harbouring pTrpBB-C3 and pTrpBB-C7, and thus encoding the fusion proteins BB-C3 and BB-C7, respectively, were grown overnight at 37° C. in shake-flasks containing 10 ml Tryptic Soy Broth (Difco, USA) (30 g/l) supplemented with yeast extract (Difco) (5 g/l) and kanamycin monosulfate (50 mg/l). The overnight cultures were diluted 10-fold to 100 ml into baffled shake-flasks having the same type of media and grown at 37° C. Gene expression was induced at mid-log phase (A_{600 nm}≅1) by the addition of β-indole acrylic acid to 25 mg/l. Cells were harvested 20 hours after induction, by centrifugation at approximately 6000 g for 10 min. Cells were resuspended in 1/20 of the culture volume in TST (50 mM Tris-HCl pH 8.0. 200 mM NaCl, 0.05% Tween 20, 1 mM EDTA), lysed by sonication and centrifuged at approximately 40,000 g. The samples for the sonication were prepared by sedimenting the shake-flask culture by centrifugation, and thereafter resuspending the cells in 30 ml of cold TST buffer. The samples were stored on ice during a 2 minute pulsed sonication which was performed on a Sonics and Materials Inc. (Danbury, Conn., USA) Vibra Cell (500 W) using a 13 mm standard horn tip, a 70% duty cycle (20 kHz) and with the output control set to 6.5. […] Eluted fractions were monitored for protein content by absorbance measurement at 280 nm and relevant fractions were lyophilised.

[2] = target: rabbit anti-human C-peptide antiserum; assay: competitive radioimmunoassay against labelled C-peptide tracer; expected concentration 3.31 nM

T1 sequence (P02768 25-609 limits assumed): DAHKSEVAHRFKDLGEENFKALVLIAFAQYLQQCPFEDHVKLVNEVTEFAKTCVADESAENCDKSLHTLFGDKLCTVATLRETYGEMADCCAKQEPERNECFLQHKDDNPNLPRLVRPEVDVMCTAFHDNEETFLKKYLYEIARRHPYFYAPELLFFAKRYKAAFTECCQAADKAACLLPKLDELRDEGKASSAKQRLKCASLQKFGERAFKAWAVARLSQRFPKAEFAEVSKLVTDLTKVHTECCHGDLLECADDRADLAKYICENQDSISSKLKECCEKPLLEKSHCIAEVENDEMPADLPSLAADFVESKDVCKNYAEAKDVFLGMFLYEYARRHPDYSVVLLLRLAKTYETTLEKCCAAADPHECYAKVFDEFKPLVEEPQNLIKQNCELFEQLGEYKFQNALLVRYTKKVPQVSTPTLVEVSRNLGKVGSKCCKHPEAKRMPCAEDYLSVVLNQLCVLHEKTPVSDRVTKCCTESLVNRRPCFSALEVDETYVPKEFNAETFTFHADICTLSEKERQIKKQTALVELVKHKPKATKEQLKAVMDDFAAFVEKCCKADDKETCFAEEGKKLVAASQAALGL

| Binder | binding result [1] | Assayed concentration [2] [nM] | Assayed concentration as percent of expected [2] [%] |
| --- | --- | --- | --- |
| BB-C3 fusion protein (other, Expressed in E. coli from pTrpBB-C3; 39.1 kDa) MKAIFVLNAQHDEAVDANFDQFNKYGVSDYYKNLINNAKTVEGVKDLQAQVVESAKKARISEATDGLSDFLKSQTPAEDTVKSIELAEAKVLANRELDKYGVSDYHKNLINNAKTVEGVKDLQAQVVESAKKARISEATDGLSDFLKSQTPAEDTVKSIELAEAKVLANRELDKYGVSDYYKNLINNAKTVEGVKALIDEILAALPKTDTYKLILNGKTLKGETTTEAVDAATARSFNFPILENSSSVPASQAREAEDLQVGQVELGGGPGAGSLQPLALEGSLQRTASQAREAEDLQVGQVELGGGPGAGSLQPLALEGSLQRTASQAREAEDLQVGQVELGGGPGAGSLQPLALEGSLQRTASQAVD | binds | – | – |
| EAEDLQVGQVELGGGPGAGSLQPLALEGSLQ [Insulin C-peptide (from cleavage of fusion protein BB-C7)] | – | 2.34 | 71 |
| BB-C7 fusion protein (other, Expressed in E. coli from pTrpBB-C7; 54.2 kDa; also called peptide product comprising the fusion partner BB and seven copies of the insulin C-peptide) MKAIFVLNAQHDEAVDANFDQFNKYGVSDYYKNLINNAKTVEGVKDLQAQVVESAKKARISEATDGLSDFLKSQTPAEDTVKSIELAEAKVLANRELDKYGVSDYHKNLINNAKTVEGVKDLQAQVVESAKKARISEATDGLSDFLKSQTPAEDTVKSIELAEAKVLANRELDKYGVSDYYKNLINNAKTVEGVKALIDEILAALPKTDTYKLILNGKTLKGETTTEAVDAATARSFNFPILENSSSVPASQAREAEDLQVGQVELGGGPGAGSLQPLALEGSLQRTASQAREAEDLQVGQVELGGGPGAGSLQPLALEGSLQRTASQAREAEDLQVGQVELGGGPGAGSLQPLALEGSLQRTASQAREAEDLQVGQVELGGGPGAGSLQPLALEGSLQRTASQAREAEDLQVGQVELGGGPGAGSLQPLALEGSLQRTASQAREAEDLQVGQVELGGGPGAGSLQPLALEGSLQRTASQAREAEDLQVGQVELGGGPGAGSLQPLALEGSLQRTASQAVD | binds | – | – |
